In patent US10280218B2, “Antibodies binding to BMP4, and uses thereof” (ACADEMISCH MEDISCH CENTRUM, priority 2014, dated 2019):
Values belong to the molecule of their own block, whether it stands above or below them.

Columns and labels:
[1] = molecular target: T1, BMP2 (Homo sapiens, UniProt P12643); assay: Surface plasmon resonance (SPR), BMPs injected over VHH-coated chip; set-up: ka (BMP2): unit not given here; conditions: molecule coupled to chip, —: No binding detected
T1 sequence (P12643 283-396): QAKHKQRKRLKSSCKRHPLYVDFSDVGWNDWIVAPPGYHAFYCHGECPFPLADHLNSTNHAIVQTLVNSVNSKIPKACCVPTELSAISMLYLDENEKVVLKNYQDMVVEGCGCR
Description: (§1) In a first set of experiments, controls and VHHs (either as monomers or dimers) were coupled to SPR chips and the measurement of BMP affinities was obtained by injecting the different BMPs to the plate.
(§2) Serial dilutions (2.0-10 μg/ml) of purified VHHs were spotted on an amine-specific SensEye gold-film gel-type SPRchip (Ssens), using a Continuous Flow Microspotter (Wasatch Microfluidics, Salt Lake City, Utah, United States) as described (Lokate et al., 2007). BMP binding was analyzed on an IBIS MX96 (IBIS Technologies, Enschede, The Netherlands) instrument by performing injections with dilution series (0.05-2.0 μg/ml) of recombinant BMPs on the VHH-coated chip. In each injection, BMPs were injected and incubated for 8 min, followed by 15 min thorough washing with binding buffer (PBS+0.05% Tween20+0.05% sodium azide) to measure dissociation. Epitope binning was done by injecting VHH dilutions (2.0 μg/ml) over the chip, immediately after the dissociation step. Injections with blank binding buffer were used as reference. After each concatenated injection, the chip was regenerated with 10 mM glycine-HCl, pH 2.0. Experimental data were processed with SPRintX software (IBIS Technologies) and kinetic parameters were determined using Scrubber2 software (BioLogic Software, Campbell, ACT, Australia). Binding constants were obtained by global fitting to a one-site binding model.

[2] = molecular target: T2, BMP6 (Homo sapiens, UniProt P22004); assay: as above; conditions: molecule coupled to chip; unit inferred; — not defined there (Table 1: No binding detected)
T2 sequence (P22004 375-513): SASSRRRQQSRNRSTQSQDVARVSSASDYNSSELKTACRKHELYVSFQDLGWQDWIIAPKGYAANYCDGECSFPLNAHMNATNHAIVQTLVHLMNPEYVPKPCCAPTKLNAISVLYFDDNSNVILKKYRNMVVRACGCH
Description: as §1, with “To confirm their BMP specificities and to elucidate their binding affinities, our VHHs were subjected to surface plasmon resonance (SPR) analysis. In” for “In”
as §2

[3] = molecular target: T3, BMP5 (Homo sapiens, UniProt P22003); assay: as above; format: binding; conditions: molecule coupled to chip; unit inferred
T3 sequence (P22003 317-454): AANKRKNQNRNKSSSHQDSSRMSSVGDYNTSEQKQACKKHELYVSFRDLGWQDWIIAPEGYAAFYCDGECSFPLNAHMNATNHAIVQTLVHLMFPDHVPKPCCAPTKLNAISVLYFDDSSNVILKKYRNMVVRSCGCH
Description: as §1, with “To confirm their BMP specificities and to elucidate their binding affinities, our VHHs were subjected to surface plasmon resonance (SPR) analysis. In” for “In”
as §2

[4] = molecular target: T4, BMP7 (Homo sapiens, UniProt P18075); assay: as above; format: binding; conditions: for Kd: molecule coupled to chip, unit inferred, — not defined there (Table 1: No binding detected)
T4 sequence (P18075 293-431): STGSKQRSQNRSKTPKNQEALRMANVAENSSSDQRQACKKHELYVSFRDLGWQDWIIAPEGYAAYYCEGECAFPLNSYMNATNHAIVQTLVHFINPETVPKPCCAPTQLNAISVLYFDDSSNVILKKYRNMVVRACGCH
Description: as §1, with “To confirm their BMP specificities and to elucidate their binding affinities, our VHHs were subjected to surface plasmon resonance (SPR) analysis. In” for “In”
as §2

[5] = molecular target: T2, BMP6; assay: BMP activity luciferase reporter assay (BRE-luciferase, ID1 promoter) in C2C12 cells; format: cell-based, mouse
Description: One of the most studied BMP target genes is the Inhibitor of Differentiation 1 (ID1). This is an immediate early gene that is activated by binding of the phosphorylated SMADs to its promoter region (López-Rovira et al., 2002). Thus, we employed the BMP-responsive C2C12 cells, which are stably transfected with the BRE-luciferase vector containing the BMP-Responsive-Element (the mouse ID1 promoter) cloned into the pGL3 luciferase vector (Zilberberg 2007). […] C2C12 cells were treated with the different BMPs with or without our VHHs or human Noggin at a concentration of 5 μg/ml. Luciferase activity was measured after 16 hours incubation. Most of the transcriptional data is in concordance with the results obtained with the phosphorylation of SMAD1/5/8.
C2C12 cells were plated in 96-well plates at 5×10^3 cells/well and cells were allowed to attach overnight. 100 μl of DMEM with 0.1% BSA were added in each well. VHH antibodies and human Fc-Noggin at the indicated concentrations were added at the same time. Wells with unstimulated cells were added as controls. Cells were treated in triplicate with the BMPs at the indicated concentrations for 16 hours. Luciferase activity was measured by adding 100 μl of luciferase substrate solution from the Bright-Glo™ Luciferase Assay System (Promega Benelux, Leiden, The Netherlands). After 3 minutes of incubation, luciferase activity was measured with Synergy HT Multi-Mode Microplate Reader (Biotek, Winooski, Vt., United States). Luciferase values were normalized to background activity (activity of wells with no cells) and represented as ratio to the activity of BMP-stimulated cells.
C2C12 cells were cultured in 96-well plates at 5×10^3 cells/well. […]

ka (BMP2) [1]: 19.4
kd (BMP2) [1]: 10.7 10^−5 sec^−1
Kd [2]: 50 nM
Kd [3]: 95 nM
unspecific binding of dimers to BMP7 (SPR, in words) ([4]; in contrast to the functional results): shown to bind
Kd [4]: 31 nM
inhibition of BMP6-mediated transcriptional activation by dimers ([5]; BMP6 50 ng/ml, 16 hours, increasing concentrations): unable to impair
B1: C8E7: E7 linked to C8, hetero-dimer VHH bihead (protein)
chain: EVQLVESGGGLVQAGGSLRLSCAASGRTFRINDMGWYRQAPGKSRDMVARITSGGNTNYADSVKGRFTISRDNAKNTVYLQMNSLKPEDTAVYYCNADGLRFDSTRYRPFDSWGQGTQVTVSSGGGGSGGGGSEVQLVESGGGLVQAGGSLRLSCAASGSIRGFVAMAWYRQAPGKQREWVATVTNGGTLYGDSVKGRFTGSRDNAKNTVYLQMNSLKPEDTAVYYCALRQIGASGYDYWGQGTQVTVSS

kd (BMP2) [1]: 16.2 10^−5 sec^−1
Kd [2]: 50 nM
Kd [3]: 68 nM
Kd [4]: 80 nM
inhibition of BMP-6 signals, comparison of inhibitors ([5]; 50 ng/ml hBMP6, 16 h, 500 ng/ml): inhibited
B2: hNoggin (protein)
chain: QHYLHIRPAPSDNLPLVDLIEHPDPIFDPKEKDLNETLLRSLLGGHYDPGFMATSPPEDRPGGGGGAAGGAEDLAELDQLLRQRPSGAMPSEIKGLEFSEGLAQGKKQRLSKKLRRKLQMWLWSQTFCPVLYAWNDLGSRFWPRYVKVGSCFSKRSCSVPEGMVCKPSKSVHLTVLRWRCQRRGGQRCGWIPIQYPIISECKCSC
